B1: HDV Ribozyme (parent)
chain: GGCCGGCAUGGUCCCAGCCUCCUCGCUGGCGCCGGCUGGGCAACAUUCCGAGGGGACCGUCCCCUCGGUAAUGGCGAAUGGGACCCA

The data set covers variants of B1. As to the kind of experiment: self-cleavage, relative activity (ratio to wild type); higher = more cleavage; co-transcriptional.
Regarding GGCCGGGAUGGUCCCAGCCUCCUCGCUGGCGCCGGCUGGGCAACAUUCCGAGGGGACCGUCCCCACGGUAAUGGCGAAUGGGACCCA, the self-cleavage is 0. Under GGCCGGGAUGGUCCCAGCCUCCUCGCUGGCGCCGGCUGGGCAACAUUCCGAGCGGACCGUCCCCUCGGUAAUGGCGAAUGGGACCCA stands 0.

Consider GGCCGGGAUGGUCCCAGCCCCCUCGCUGGCGCCGGCUGGGCAACAUUCCGAGGGGACCGUCCCCUCGGUAAUGGCGAAUGGGACCCA, for which the self-cleavage was 0. Under GGCCGGGAUGGUCCCAGCCGCCUCGCUGGCGCCGGCUGGGCAACAUUCCGAGGGGACCGUCCCCUCGGUAAUGGCGAAUGGGACCCA stands 0.145; under GGCCGGGAUGGUCCCAGCCUCCUCGCUGGCGCCGGCUGGGCAACAUUCCGAGGGGACCGUCCCCUCGGUAAUGGCGAAUCGGACCCA, 0. Under GGCCGGGAUGGUCCCAGCCUCCUCGCUGGCGCCGGCUGGGCAACAUUCCGAGGGGACCGUCCCCUCGGUAAUGGCGAAUUGGACCCA stands 0.0462. Under GGCCGGGAUGGUCCCAGCCUCCUCGCUGGCGCCGGCUGGGCAACAUUCCGAGGGGACCGUCCCCUCGGUAAGGGCGAAUGGGACCCA stands 0; under GGCCGGGAUGGUCCCAGCCUCCUCGCUGGCGCCGGCUGGGCAACAUUCCGAGGGGACCGUCCCCUCGGUAAAGGCGAAUGGGACCCA, 0.0755. In the case of GGCCGGGAUGGUCCCAGCCUCCUCGCUGGCGCCGGCUGGGCAACAUGCCGAGGGGACCGUCCCCUCGGUAAUGGCGAAUGGGACCCA, the self-cleavage is 0. Under GGCCGGGAUGGUCCCAGCCUCCUCGCUGGCGCCGGCUGGGCAACAUUCCGAGGGGACCGGCCCCUCGGUAAUGGCGAAUGGGACCCA stands 0.256; under GGCCGGGAUGGUCCCAGCCUCCUCGCUGGCGCCGGCUGGGCAACAUUCCGAGGGGACCGCCCCCUCGGUAAUGGCGAAUGGGACCCA, 0.383. The value for GGCCGGUCUGGUCCCAGCCUCCUCGCUGGCGCCGGCUGGGCAACAUUCCGAGGGGACCGUCCCCUCGGUAAUGGCGAAUGGGACCCA was 0.917; that for GGCCGGUAUGGUCCCAGCCUCCUCGCUGGCGCCGGCUGGGCAACAUUCCGAGGGGACCGUCCCCUCGGUUAUGGCGAAUGGGACCCA was 0.748. Under GGCCGGUAUGGUCCCAGCCUCCUCGCUGGCGCCGGCUGGGCAACAUUCCGAGGGGACCGUCCCCUCGGUACUGGCGAAUGGGACCCA stands 0.322; under GGCCGGUAUGGUCCCAGCCUCCUCGCUGGCGCCGGCUGGGCAACAUUCCGAGGGGACCGUCCCCUCGGUAUUGGCGAAUGGGACCCA, 0.677.

Turning to GGCCGGUAUGGUCCCAGCCUCCUCGCUGGCGCCGGCUGGGCAACAUUCCGAGGGGACCGUCCCCUCGGUAGUGGCGAAUGGGACCCA, the self-cleavage was 0.931. The value for GGCCGGGAUGGUCCCAGCCUCCUCGCUGGCGCCGGCUGGGCAACAUUCCGAGGGCACCGUCCCCUCGGUAAUGGCGAAUGGGACCCA was 0.214; that for GGCCGGGAUGGUCCCAGCCUCCUCGCUGGCGCCGGCUGGGCAACAUUCCGAGGGUACCGUCCCCUCGGUAAUGGCGAAUGGGACCCA was 0.17. Under GGCCGGUAUGGUCCCAGCCUCCUCGCUGGCGCCGGCUGGGCAACAUUCCGAGGGGACCGUCCCCUCGGUAAUGGCGAAUGGGACCCA stands 0.86.

Take GGCCGGGAUGGUCCCAGCCUCCUCGCUGGCGCCGGCUGGGCAACAUUCCGAAGGGACCGUCCCCUCGGUAAUGGCGAAUGGGACCCA: the self-cleavage turned out to be 0.151. The value for GGCCGGUAUGGUCCCAGCCUCCUCGCUGGCGCCGGCUGGGCAACUUUCCGAGGGGACCGUCCCCUCGGUAAUGGCGAAUGGGACCCA was 0.415; that for GGCCGGUAUGGUCCCAGCCUCCUCGCUGGCGCCGGCUGGGCAACCUUCCGAGGGGACCGUCCCCUCGGUAAUGGCGAAUGGGACCCA was 0.119. Under GGCCGGGAUGGUCCCAGCCUCCUCGCUGGCGCCGGCUGGGCAACAUUCCGAGGGGACCGUCCCCUCGGUAAUCGCGAAUGGGACCCA stands 0; under GGCCGGGAUGGUCCCAGCCUCCUCGCUGGCGCCGGCUGGGCAACAUUCCGAGGGGACCGUCCCCUCGGUAAUGGCUAAUGGGACCCA, 0.237; under GGCCGGGAUGGUCCCAGCCUCCUCGCUGGCGCCGGCUGGGCAACAUUCCGAGGGGACCGUCCCCUCGGUAAUGGCAAAUGGGACCCA, 0.172. The value for GGCCGGGAUGGUCCCAGCCUCCUCGCUGGCGCCGGCUGGGCAACAUUCCAAGGGGACCGUCCCCUCGGUAAUGGCGAAUGGGACCCA was 0.612; that for GGCCGGGAUGGUCCCAGCCUCCUCGCUGGCGCCGGCUGGGCAACAUUCCUAGGGGACCGUCCCCUCGGUAAUGGCGAAUGGGACCCA was 0.237.

As for GGCCGGGAUGGUCCCAGCCUCCUCGCUGGCGCCGGCUGGGCAACAUUCCGAGGAGACCGUCCCCUCGGUAAUGGCGAAUGGGACCCA, the self-cleavage amounted to 0.302. The value for GGCCGGGAUGGUCCCAGCCUCCUCGCUGGCGCCGGCUGGGCAACAUUCCGAGGUGACCGUCCCCUCGGUAAUGGCGAAUGGGACCCA was 0.219; that for GGCCGGGAUGGUCCCAGCCUCCUCGCUGGCGCCGGCUGGGCAACAUUCCGAGGCGACCGUCCCCUCGGUAAUGGCGAAUGGGACCCA was 0.415; that for GGCCGGUAUGGUCCCAGCCUCCUCGCUGGCGCCGGCUGGGCAACAUUCCGAGGGGACCGUCCCCUCGGUAAUGGCGAAUGGGACCCG was 0.91. The value for GGCCGGUAUGGUCCCGGCCUCCUCGCUGGCGCCGGCUGGGCAACAUUCCGAGGGGACCGUCCCCUCGGUAAUGGCGAAUGGGACCCA was 0.72; that for GGCCGGUAUGGUCCCUGCCUCCUCGCUGGCGCCGGCUGGGCAACAUUCCGAGGGGACCGUCCCCUCGGUAAUGGCGAAUGGGACCCA was 0.643; that for GGCCGGUAUGGUCCCAGCCUCCUCGCUGGCGCCGGCUGGGCAACAUUCCGAGGGGACCGUCCCCUCGGUAAUGGCGAAUGGGGCCCA was 0.475. Take GGCCGGUAUGGUCCCAGCCUCCUCGCUGGCGCCGGCUGGGCAACAUUCCGAGGGGACCGUCCCCUCGGUAAUGGCGAAUGGGCCCCA: the self-cleavage amounted to 0.287. Turning to GGCCGGGAUGGUCCCAGCCUCCUCGCUGGCGCCGGCUCGGCAACAUUCCGAGGGGACCGUCCCCUCGGUAAUGGCGAAUGGGACCCA, the self-cleavage turned out to be 0.0594. Under GGCCGGGAUGGUCCCAGCCUCCUCGCUGGCGCCGGCUGGGCAACAUUCCGAGGGGACCGUCCCCUCGGUAAUGUCGAAUGGGACCCA stands 0.0361; under GGCCGGUAUGGUCCCAGCCUCCUCGCUGGCGCCGGCUGGGCAACAUUCCGGGGGGACCGUCCCCUCGGUAAUGGCGAAUGGGACCCA, 0.965. Regarding GGCCGGUAUGGUCCCAGCCUCCUCGCUGGCGCCGGCUGGGCAACAUUCCGAGGGGACCGUCCCCUCGGUAAUGGCGGAUGGGACCCA, the self-cleavage amounted to 0.434. The value for GGCCGGGAUGGUCCCAGCCUCCUCGCUGGCGCCGGCUGGGCAACAUUCCGAGGGGACCGUCCCCUCGGUAAUGGCGAAUGGAACCCA was 0.113. The value for GGCCGGGAUGGCCCCAGCCUCCUCGCUGGCGCCGGCUGGGCAACAUUCCGAGGGGACCGUCCCCUCGGUAAUGGCGAAUGGGACCCA was 0.111; that for GGCCGGGAUGGUCCCAGCCUCCGCGCUGGCGCCGGCUGGGCAACAUUCCGAGGGGACCGUCCCCUCGGUAAUGGCGAAUGGGACCCA was 0.217. The value for GGCCGGGAUGGUCCCAGCCUCCACGCUGGCGCCGGCUGGGCAACAUUCCGAGGGGACCGUCCCCUCGGUAAUGGCGAAUGGGACCCA was 0.227; that for GGCCGGGAAGGUCCCAGCCUCCUCGCUGGCGCCGGCUGGGCAACAUUCCGAGGGGACCGUCCCCUCGGUAAUGGCGAAUGGGACCCA was 0.237. Turning to GGCCGGGAGGGUCCCAGCCUCCUCGCUGGCGCCGGCUGGGCAACAUUCCGAGGGGACCGUCCCCUCGGUAAUGGCGAAUGGGACCCA, the self-cleavage amounted to 0.831. The value for GGCCGGGAUGGUCCCAGCCUCCUCGCUGGCGCCGGCAGGGCAACAUUCCGAGGGGACCGUCCCCUCGGUAAUGGCGAAUGGGACCCA was 0.147; that for GGCCGGUAUGGUCACAGCCUCCUCGCUGGCGCCGGCUGGGCAACAUUCCGAGGGGACCGUCCCCUCGGUAAUGGCGAAUGGGACCCA was 0.516; that for GGCCGGGAUGGUCCCAGCCUCCUCGCUGGCGCCGGCUGGGCAACAUUCCGAGGGGACCGUCCCCUCGGUAAUGGCGAAUGCGACCCA was 0. The value for GGCCGGGAUGGUCCCAGCCUCCUCGCUGGCGCCGGCUGGGCAACAUUCCGAGGGGACCGUCCCCUCGGUAAUGGCGAAUGAGACCCA was 0.0594; that for GGCCGGGAUGGUCCCAGCCUCCUCGCUGGCGCCGGCUGGGCAACAUUCCGAGGGGACCCUCCCCUCGGUAAUGGCGAAUGGGACCCA was 0.404. The value for GGCCGGGAUGGUCCCAGCCUCCUCGCUGGCGCCGGCUGGGCAACAUUCCGAGGGGACCAUCCCCUCGGUAAUGGCGAAUGGGACCCA was 0.332; that for GGCCGGUAUGGUCCCAGCCUCCUCGCUGGCGCCGGCUGGGCAGCAUUCCGAGGGGACCGUCCCCUCGGUAAUGGCGAAUGGGACCCA was 0.19. As for GGCCGGUAUGGUCCCAGCCUCCUCGCUGGCGCCGGCUGGGCAUCAUUCCGAGGGGACCGUCCCCUCGGUAAUGGCGAAUGGGACCCA, the self-cleavage came out at 0.475. Consider GGCCGGUAUGGUCCCAGCCUCCUCGCUGGCGCCGGCUGGGCACCAUUCCGAGGGGACCGUCCCCUCGGUAAUGGCGAAUGGGACCCA, for which the self-cleavage is 0.26. With GGCCGGGAUGGUCCCAGCCUCCUCGCUGGCGCCGGCUGUGCAACAUUCCGAGGGGACCGUCCCCUCGGUAAUGGCGAAUGGGACCCA, the self-cleavage is 0. GGCCGGUAUGGUCCCAGCCUCCUCGCUGGCGCCGGCUGGGCAACAUUCCGAGGGGACCGUCCCCUCGGUAAUGGCGAUUGGGACCCA: the self-cleavage amounted to 0.166. The value for GGCCGGUAUGGUCCCAGCCUCCUCGCUGGCGCCGGCUGGGCAACAUUCCGAGGGGACCGUCCCCUCGGUAAUGGCGAGUGGGACCCA was 0.375; that for GGCCGGGAUGGUCCCAGCCUCCUCGCUGGCGCCGGCUGGGCAACAUUCCGAGGGGACCGUCCCCUCUGUAAUGGCGAAUGGGACCCA was 0.302; that for GGCCGGGAUGGUCCCAGCCUCCUCGCUGGCGCCGGCUGGGCAACAUUCCGAGGGGACCGUCCCCUCAGUAAUGGCGAAUGGGACCCA was 0.128.

Take GGCCGGGAUGGUCCCAGCCUCCUCGCUGGCGCCGGCUGGGCAACAUUCCGAGGGGACCGUCCCCUCGUUAAUGGCGAAUGGGACCCA: the self-cleavage stood at 0.285.

GGCCGGGAUGGUCCCAGCCUCCUCGCUGGCGCCGGCUGGGCAACAUUCCGAGGGGACCGUCCCCUCGCUAAUGGCGAAUGGGACCCA: the self-cleavage turned out to be 0.0504. Under GGCCGGGAUGGUCCCAGCCUCCUCGCUGGCGCCGGCUGGGCAACAUUCCGAGGGGACCGUCCCCUCGGUAAUGGCGAACGGGACCCA stands 0.0489; under GGCCGGGAUGGUCCCAGCCUCCUCGCUGGCGCCGGCUGGGCAACAUUCCGAGGGGACCGUCCCCUCGGUAAUGGCGAAGGGGACCCA, 0.104; under GGCCGGGAUGGUCCCAGCCUCCUCGCUGGCGCCGGCUGGGCAACAAUCCGAGGGGACCGUCCCCUCGGUAAUGGCGAAUGGGACCCA, 0.

(Values after the RNAGym collection of RNA variant scans (doi:10.7554/elife.80360).)
